{"source": "IntAct's records for PubMed 36931259", "parents": {"B1": {"name": "14-3-3 protein sigma (Homo sapiens), P31947 (parent)", "chain": "MERASLIQKAKLAEQAERYEDMAAFMKGAVEKGEELSCEERNLLSVAYKNVVGGQRAAWRVLSSIEQKSNEEGSEEKGPEVREYREKVETELQGVCDTVLGLLDSHLIKEAGDAESRVFYLKMKGDYYRYLAEVATGDDKKRIIDSARSAYQEAMDISKKEMPPTNPIRLGLALNFSVFHYEIANSPEEAISLAKTTFDEAMADLHTLSEDSYKDSTLIMQLLRDNLTLWTADNAGEEGGEAPQEPQS", "partner": "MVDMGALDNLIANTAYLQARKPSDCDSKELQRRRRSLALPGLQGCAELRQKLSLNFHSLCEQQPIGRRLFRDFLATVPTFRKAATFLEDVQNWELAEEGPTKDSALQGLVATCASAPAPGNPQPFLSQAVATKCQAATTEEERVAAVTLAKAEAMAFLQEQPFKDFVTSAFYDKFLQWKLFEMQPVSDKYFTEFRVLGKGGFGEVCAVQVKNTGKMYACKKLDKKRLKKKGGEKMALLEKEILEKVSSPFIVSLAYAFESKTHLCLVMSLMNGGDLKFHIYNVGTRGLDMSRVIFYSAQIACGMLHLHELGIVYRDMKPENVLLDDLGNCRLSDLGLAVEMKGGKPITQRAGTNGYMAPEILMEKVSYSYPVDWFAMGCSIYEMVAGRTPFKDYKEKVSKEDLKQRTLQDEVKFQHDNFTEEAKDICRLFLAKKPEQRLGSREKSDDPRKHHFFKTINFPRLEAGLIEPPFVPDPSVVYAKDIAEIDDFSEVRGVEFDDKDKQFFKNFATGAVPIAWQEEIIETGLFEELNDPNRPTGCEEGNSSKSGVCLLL"}, "B2": {"name": "14-3-3 protein sigma (Homo sapiens), P31947 (parent)", "chain": "B1 chain", "partner": "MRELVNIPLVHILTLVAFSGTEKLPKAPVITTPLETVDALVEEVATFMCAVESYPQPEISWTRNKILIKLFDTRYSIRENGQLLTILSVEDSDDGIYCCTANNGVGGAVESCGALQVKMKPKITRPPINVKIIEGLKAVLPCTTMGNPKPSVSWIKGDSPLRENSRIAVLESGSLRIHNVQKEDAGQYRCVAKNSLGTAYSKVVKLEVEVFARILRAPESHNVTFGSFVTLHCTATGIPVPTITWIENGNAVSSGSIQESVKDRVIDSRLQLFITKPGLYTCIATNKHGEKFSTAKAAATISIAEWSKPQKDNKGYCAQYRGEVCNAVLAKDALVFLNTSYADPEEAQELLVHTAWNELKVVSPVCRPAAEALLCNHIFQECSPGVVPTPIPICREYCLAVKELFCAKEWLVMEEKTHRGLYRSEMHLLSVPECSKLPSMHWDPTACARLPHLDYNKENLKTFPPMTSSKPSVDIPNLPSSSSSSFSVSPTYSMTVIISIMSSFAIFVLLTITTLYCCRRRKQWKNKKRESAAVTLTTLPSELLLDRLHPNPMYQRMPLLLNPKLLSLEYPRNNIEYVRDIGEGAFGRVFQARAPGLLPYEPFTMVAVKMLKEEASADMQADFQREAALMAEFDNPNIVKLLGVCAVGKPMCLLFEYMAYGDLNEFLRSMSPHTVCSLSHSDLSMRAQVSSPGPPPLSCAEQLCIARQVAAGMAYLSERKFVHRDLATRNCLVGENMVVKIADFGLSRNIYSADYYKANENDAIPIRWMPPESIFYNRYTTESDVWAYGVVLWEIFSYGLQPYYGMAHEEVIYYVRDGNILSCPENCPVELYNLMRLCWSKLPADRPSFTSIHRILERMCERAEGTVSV"}, "B3": {"name": "14-3-3 protein sigma (Homo sapiens), P31947 (parent)", "chain": "B1 chain", "partner": "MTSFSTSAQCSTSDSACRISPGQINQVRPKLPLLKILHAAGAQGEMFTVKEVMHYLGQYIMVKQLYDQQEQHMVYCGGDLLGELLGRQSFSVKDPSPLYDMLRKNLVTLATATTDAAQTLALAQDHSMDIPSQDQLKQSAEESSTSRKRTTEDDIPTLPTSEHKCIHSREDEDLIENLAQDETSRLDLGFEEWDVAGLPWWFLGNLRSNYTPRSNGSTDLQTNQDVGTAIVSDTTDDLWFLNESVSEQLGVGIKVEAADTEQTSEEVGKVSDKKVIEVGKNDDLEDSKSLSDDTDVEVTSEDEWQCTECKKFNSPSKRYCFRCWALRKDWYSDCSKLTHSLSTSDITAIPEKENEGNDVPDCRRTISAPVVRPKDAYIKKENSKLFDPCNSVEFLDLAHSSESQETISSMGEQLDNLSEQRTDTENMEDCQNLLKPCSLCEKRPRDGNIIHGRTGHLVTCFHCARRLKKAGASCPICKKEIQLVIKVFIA"}, "B4": {"name": "14-3-3 protein sigma (Homo sapiens), P31947 (parent)", "chain": "B1 chain", "partner": "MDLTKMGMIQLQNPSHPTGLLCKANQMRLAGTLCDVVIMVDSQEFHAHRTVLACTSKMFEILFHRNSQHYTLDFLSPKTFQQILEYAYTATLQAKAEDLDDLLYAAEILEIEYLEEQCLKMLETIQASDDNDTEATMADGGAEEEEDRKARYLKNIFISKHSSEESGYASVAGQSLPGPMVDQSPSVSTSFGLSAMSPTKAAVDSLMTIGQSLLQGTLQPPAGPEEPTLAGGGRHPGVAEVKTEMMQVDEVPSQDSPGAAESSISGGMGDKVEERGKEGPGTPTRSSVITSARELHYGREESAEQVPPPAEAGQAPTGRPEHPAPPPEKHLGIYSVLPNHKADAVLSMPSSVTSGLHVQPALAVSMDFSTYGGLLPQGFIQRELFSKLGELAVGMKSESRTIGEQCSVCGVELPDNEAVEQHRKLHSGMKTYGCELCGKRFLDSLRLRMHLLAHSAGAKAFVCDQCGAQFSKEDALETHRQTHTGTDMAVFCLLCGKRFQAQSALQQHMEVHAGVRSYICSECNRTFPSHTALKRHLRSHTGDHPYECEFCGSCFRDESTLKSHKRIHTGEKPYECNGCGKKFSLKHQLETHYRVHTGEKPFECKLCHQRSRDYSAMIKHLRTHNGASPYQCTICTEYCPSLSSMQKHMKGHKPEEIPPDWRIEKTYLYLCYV"}, "B5": {"name": "14-3-3 protein sigma (Homo sapiens), P31947 (parent)", "chain": "B1 chain", "partner": "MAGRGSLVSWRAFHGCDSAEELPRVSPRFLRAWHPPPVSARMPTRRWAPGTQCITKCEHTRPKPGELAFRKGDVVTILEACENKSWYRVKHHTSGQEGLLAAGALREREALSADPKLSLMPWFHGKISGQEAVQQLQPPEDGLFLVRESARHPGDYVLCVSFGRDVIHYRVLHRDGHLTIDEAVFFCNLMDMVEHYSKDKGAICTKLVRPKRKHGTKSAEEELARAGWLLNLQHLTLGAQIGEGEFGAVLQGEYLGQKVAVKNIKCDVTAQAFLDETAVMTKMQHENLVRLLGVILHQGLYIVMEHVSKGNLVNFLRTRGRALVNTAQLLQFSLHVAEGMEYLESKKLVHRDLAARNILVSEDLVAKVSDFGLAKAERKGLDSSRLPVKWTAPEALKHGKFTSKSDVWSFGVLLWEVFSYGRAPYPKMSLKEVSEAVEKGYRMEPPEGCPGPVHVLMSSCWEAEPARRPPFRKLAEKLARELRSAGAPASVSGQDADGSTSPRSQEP"}, "B6": {"name": "14-3-3 protein sigma (Homo sapiens), P31947 (parent)", "chain": "B1 chain", "partner": "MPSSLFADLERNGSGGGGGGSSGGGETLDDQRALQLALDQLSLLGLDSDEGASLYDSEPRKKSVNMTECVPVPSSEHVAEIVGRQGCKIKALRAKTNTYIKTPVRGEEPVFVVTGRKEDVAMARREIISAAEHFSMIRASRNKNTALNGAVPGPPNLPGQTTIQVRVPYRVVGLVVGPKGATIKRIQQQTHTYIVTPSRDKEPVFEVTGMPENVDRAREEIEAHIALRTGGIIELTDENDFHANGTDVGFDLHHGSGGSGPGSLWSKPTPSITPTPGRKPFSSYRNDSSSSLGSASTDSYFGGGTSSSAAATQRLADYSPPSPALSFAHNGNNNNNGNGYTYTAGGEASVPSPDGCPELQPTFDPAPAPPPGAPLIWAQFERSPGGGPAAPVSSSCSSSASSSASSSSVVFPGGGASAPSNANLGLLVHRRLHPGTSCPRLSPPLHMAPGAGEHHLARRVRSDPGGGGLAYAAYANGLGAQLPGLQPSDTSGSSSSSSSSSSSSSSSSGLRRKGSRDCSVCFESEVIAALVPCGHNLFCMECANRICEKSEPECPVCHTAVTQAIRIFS"}, "B7": {"name": "14-3-3 protein sigma (Homo sapiens), P31947 (parent)", "chain": "B1 chain", "partner": "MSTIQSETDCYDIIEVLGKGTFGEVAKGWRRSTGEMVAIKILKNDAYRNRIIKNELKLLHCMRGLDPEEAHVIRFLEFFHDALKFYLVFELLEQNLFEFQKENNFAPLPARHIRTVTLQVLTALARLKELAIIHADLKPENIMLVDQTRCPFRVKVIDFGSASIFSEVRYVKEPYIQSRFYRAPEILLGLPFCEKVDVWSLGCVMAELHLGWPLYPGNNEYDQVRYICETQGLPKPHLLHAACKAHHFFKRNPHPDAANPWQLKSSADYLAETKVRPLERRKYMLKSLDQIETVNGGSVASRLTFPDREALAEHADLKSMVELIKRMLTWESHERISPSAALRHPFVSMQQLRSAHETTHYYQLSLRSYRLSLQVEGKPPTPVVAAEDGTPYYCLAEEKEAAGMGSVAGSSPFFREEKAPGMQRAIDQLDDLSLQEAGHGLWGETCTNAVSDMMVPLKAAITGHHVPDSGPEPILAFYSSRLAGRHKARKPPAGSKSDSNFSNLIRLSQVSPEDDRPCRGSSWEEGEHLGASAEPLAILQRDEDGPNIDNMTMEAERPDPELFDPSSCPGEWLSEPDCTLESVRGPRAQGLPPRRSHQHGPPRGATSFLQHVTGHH"}}, "data": [{"variants_of": "B1", "settings": "with grk7_human GRK7, Q8WTQ7", "values": [{"variant": "K49E;R56E;V178D", "effect of a mutation on the interaction": "decreasing interaction strength"}]}, {"variants_of": "B2", "settings": "with musk_human MUSK", "values": [{"variant": "K49E;R56E;V178D", "effect of a mutation on the interaction": "decreasing interaction strength"}]}, {"variants_of": "B3", "settings": "with mdm4_human MDM4, O15151", "values": [{"variant": "K49E;R56E;V178D", "effect of a mutation on the interaction": "decreasing interaction strength"}]}, {"variants_of": "B4", "settings": "with zbt16_human ZBTB16, Q05516", "values": [{"variant": "K49E;R56E;V178D", "effect of a mutation on the interaction": "decreasing interaction strength"}]}, {"variants_of": "B5", "settings": "with matk_human MATK", "values": [{"variant": "K49E;R56E;V178D", "effect of a mutation on the interaction": "decreasing interaction strength"}]}, {"variants_of": "B6", "settings": "with mex3b_human MEX3B", "values": [{"variant": "K49E;R56E;V178D", "effect of a mutation on the interaction": "decreasing interaction strength"}]}, {"variants_of": "B7", "settings": "with hipk4_human HIPK4, Q8NE63", "values": [{"variant": "K49E;R56E;V178D", "effect of a mutation on the interaction": "decreasing interaction strength"}]}]}
